Assay [1] has as its target T1, full-length human CD100 protein HuCD100 on cells (human, UniProt Q92854 22-862).
T1 construct: whole, on cells; the cell is named under assay; also called HuCD100-HEK293; human CD100 on HuPBMC
In words: flow cytometry on Jurkat cells naturally expressing human CD100. Here is the method:
(§1) The specific procedures were as follows: HuPBMCs (AllCells, PB004F-C (Y1246)) and Jurkat cells (ATCC, TIB-152) in logarithmic growth phase were prepared as single-cell suspensions. The density was adjusted to 1×10⁶ cells/mL, and 100 μL of each suspension was added per well to 96-well plates. The plates were centrifuged at 4° C., 300 g and the supernatants were removed. […] After incubation, the cell mixture was washed three times, and then 100 μL of 1:300 diluted secondary antibody Goat F(ab′)₂ Anti-Human IgG-Fc (PE) (abcam, ab98596) was added, and the plates were incubated in the dark at 4° C. for 30 min. Following 3 additional washes, detection was performed using a flow cytometer (Beckman, CytoFLEX AOO-1-1102).
(In general: A flow cytometer gives signals particle by particle.)

The target of assay [2] is T1, full-length human CD100 protein HuCD100 …. In words: flow cytometry on HuPBMCs naturally expressing human CD100. As to the method:
as §1

Assay [3] deals with T2, full-length mouse Plexin-B1 protein MusPlexin-B1 on cells (mouse, UniProt Q8CJH3 20-2119).
T2 construct: whole, on cells; Overexpressed on HEK293 cells; also called MusPlexin-B1-HEK293
T2 sequence (Q8CJH3 20-2119): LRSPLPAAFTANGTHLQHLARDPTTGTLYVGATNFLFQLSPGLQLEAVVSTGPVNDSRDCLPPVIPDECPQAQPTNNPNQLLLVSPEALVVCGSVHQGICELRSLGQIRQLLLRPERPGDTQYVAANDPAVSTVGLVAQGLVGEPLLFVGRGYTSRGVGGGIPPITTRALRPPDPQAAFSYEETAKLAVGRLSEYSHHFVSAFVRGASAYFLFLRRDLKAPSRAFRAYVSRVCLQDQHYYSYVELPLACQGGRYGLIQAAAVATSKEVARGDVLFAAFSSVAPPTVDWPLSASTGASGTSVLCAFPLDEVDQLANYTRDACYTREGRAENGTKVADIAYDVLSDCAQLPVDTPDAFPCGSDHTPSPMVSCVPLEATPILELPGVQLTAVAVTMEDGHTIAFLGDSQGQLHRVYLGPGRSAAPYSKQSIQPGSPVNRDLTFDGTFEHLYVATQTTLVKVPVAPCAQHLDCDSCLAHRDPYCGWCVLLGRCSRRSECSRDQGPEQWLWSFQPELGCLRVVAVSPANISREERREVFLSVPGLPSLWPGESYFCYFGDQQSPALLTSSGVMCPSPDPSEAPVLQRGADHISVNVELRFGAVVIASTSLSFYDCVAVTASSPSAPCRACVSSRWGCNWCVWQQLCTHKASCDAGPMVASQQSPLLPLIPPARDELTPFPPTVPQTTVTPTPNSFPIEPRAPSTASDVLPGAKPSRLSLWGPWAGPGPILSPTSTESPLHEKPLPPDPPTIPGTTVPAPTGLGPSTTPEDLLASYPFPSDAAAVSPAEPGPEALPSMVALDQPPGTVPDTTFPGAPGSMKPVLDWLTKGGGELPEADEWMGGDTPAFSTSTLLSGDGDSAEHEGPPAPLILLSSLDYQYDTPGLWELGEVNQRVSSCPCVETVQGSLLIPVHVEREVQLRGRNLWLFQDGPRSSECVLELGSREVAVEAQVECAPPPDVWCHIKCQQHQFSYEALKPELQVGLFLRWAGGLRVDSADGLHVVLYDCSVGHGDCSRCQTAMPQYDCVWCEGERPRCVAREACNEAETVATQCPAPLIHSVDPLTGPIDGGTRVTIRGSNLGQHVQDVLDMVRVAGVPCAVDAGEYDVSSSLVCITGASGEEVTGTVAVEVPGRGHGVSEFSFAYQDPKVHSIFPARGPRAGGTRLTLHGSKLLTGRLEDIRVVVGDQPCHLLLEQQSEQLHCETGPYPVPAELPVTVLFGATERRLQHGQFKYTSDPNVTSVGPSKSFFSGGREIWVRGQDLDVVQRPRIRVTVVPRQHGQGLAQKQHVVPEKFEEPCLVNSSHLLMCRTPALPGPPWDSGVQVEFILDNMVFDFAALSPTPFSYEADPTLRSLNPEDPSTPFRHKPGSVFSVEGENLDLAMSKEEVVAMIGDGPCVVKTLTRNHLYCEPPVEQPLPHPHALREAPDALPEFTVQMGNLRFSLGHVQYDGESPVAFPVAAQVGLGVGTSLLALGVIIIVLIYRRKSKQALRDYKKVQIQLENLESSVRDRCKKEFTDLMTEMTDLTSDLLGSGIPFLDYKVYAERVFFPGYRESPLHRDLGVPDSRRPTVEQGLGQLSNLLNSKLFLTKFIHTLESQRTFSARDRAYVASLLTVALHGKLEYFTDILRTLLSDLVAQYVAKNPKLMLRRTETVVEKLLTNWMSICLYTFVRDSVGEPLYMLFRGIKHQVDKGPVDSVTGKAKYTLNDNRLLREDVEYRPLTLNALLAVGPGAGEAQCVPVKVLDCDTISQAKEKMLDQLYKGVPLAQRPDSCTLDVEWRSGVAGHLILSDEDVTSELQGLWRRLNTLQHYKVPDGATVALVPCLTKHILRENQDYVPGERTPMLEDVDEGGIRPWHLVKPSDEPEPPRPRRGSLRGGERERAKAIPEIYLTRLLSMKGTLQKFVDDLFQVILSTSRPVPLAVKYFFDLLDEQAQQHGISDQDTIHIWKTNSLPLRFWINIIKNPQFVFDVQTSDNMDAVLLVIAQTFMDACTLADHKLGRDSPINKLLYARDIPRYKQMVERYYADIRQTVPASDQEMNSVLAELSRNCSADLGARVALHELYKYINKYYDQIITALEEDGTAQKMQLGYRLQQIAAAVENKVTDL
The assay is described as follows: flow cytometry on MusPlexin-B1-HEK293 cells with biotinylated antigen protein and streptavidin PE. Here is the method: Flow cytometry identification of HuPlexin-B1-HEK293, MusPlexin-B1-HEK293, CynoPlexin-B1-HEK293, and HuPlexin-B2-HEK293 cells: cells of the above cell lines in the logarithmic growth phase were trypsinized and plated into 96-well plates. […] After washing, the prepared eBioscience Streptavidin PE (Invitrogen, 2265658, 1:300) was added and the plates were incubated at 4° C. for 30 min. Finally, detection was performed using a flow cytometer (Beckman, CytoFLEXAOO-1-1102).

Assay [4] addresses T3, full-length mouse CD100 protein MusCD100 on cells (mouse, UniProt O09126 24-861).
T3 construct: whole, on cells; Overexpressed on HEK293 cells; also called MusCD100-HEK293
The assay is described as follows: flow cytometry on MusCD100-HEK293 cells.

For another assay, the target named is HuCD100-His (human, UniProt Q92854 22-734). The assay is described as follows: cell-based or functional assay.
Assay [5] concerns the target T4, MusCD100-His (mouse, UniProt O09126 24-733).
T4 construct: range 24-733; Expressed in HEK293 cells; also called MusCD100-His antigen protein; not shown: His tag added to the C-terminus
The assay is described as follows: primary ELISA screening of monoclonal clones. For orientation: ELISA stands for enzyme-linked immunosorbent assay.

The target of assay [6] is T4, MusCD100-His. In words: ELISA, antigen coated on plate.

Consider nine molecules from patent publication US20260028402A1 (SANYOU BIOPHARMACEUTICALS, published 2026).

Numbering of substitutions follows the chain as printed.

B1: Pepinemab (antibody, V domains shown)
VH: QVQLVQSGAEVKKPGSSVKVSCKASGYSFSDYYMHWVRQAPGQGLEWMGQINPTTGGASYNQKFKGKATITVDKSTSTAYMELSSLRSEDTAVYYCARYYYGRHFDVWGQGTTVTVSS
VL: DIVMTQSPDSLAVSLGERATINCKASQSVDYDGDSYMNWYQQKPGQPPKLLIYAASNLESGVPDRFSGSGSGTDFTLTISSLQAEDVAVYYCQQSNEDPYTFGQGTKLEIK
A word on the EC50: it is the concentration that produces a half-maximal response. A low value points to an effect from little substance. Consider B1, for which the EC50 came to 0.559 nM in assay [1] and 0.223 nM in assay [2].

B2: MusCD100-Fc (Fc fusion, mouse, UniProt O09126 24-733, looked up)
chain: FAPVPRLTWEHGEVGLVQFHKPGIFNYSALLMSEDKDTLYVGAREAVFAVNALNISEKQHEVYWKVSEDKKSKCAEKGKSKQTECLNYIRVLQPLSSTSLYVCGTNAFQPTCDHLNLTSFKFLGKSEDGKGRCPFDPAHSYTSVMVGGELYSGTSYNFLGSEPIISRNSSHSPLRTEYAIPWLNEPSFVFADVIQKSPDGPEGEDDKVYFFFTEVSVEYEFVFKLMIPRVARVCKGDQGGLRTLQKKWTSFLKARLICSKPDSGLVFNILQDVFVLRAPGLKEPVFYAVFTPQLNNVGLSAVCAYTLATVEAVFSRGKYMQSATVEQSHTKWVRYNGPVPTPRPGACIDSEARAANYTSSLNLPDKTLQFVKDHPLMDDSVTPIDNRPKLIKKDVNYTQIVVDRTQALDGTFYDVMFISTDRGALHKAVILTKEVHVIEETQLFRDSEPVLTLLLSSKKGRKFVYAGSNSGVVQAPLAFCEKHGSCEDCVLARDPYCAWSPAIKACVTLHQEEASSRGWIQDMSGDTSSCLDKSKESFNQHFFKHGGTAELKCFQKSNLARVVWKFQNGELKAASPKYGFVGRKHLLIFNLSDGDSGVYQCLSEERVRNKTVSQLLAKHVLEVKMVPRTPPSPTSEDAQTEGSKITSKMPVASTQGSSPPTPALWATSPRAATLPPKSSSGTSCEPKMVINTVPQLHSEKTVYLKSSDNR
modifications: biotinylated in the Plexin binding and blocking assays (sites not given)
notes: range 24-733; Expressed in HEK293 cells; also called MusCD100-Fc-Biotin; MusCD100-Fc antigen protein; not shown: human Fc tag added to the C-terminus
Take B2: in assay [3], the binding result was “binds”.

B3: A31 (antibody, human IgG4 S228P, V domains shown)
VH: EVQLVESGGGLVQPEGSLRLSCAASGFPLDYYAIGWFRQAPGKEREGVSCIISGGSTKYSASVKGRFTISRDSANNTVYLQMNSLKPEDTAVYFCAVSWSCDLFPRDTYGWDAWGQGTLVTVSS
notes: also called antibody A31; antibody molecule A31
As for B3, the EC50 in assay [1] was found to be 0.302 nM. In addition, a half-maximal response in assay [2] (EC50) required 0.162 nM. The binding result in assay [4] is on record as “binds”. For the same molecule, in the assay with HuCD100-His, the “MDSC proportion (%) at 2.821 nM antibody” value was found to be 16.8%, the “MDSC proportion (%) at 8.463 nM antibody” value was determined as 8.97%, the “MDSC proportion (%) at 25.389 nM antibody” value came out at 9.56% and the “MDSC proportion (%) at 76.166 nM antibody” value was 10.4%. For the same molecule, in the assay with HuCD100-His, the “MDSC proportion (%) at 228.498 nM antibody” value worked out at 10.7% and the “MDSC proportion (%) at 685.495 nM antibody” value was 14.7%.

B4: A31-VHH (VHH)
VHH: B3 VH
notes: Tested as phage clone / VHH lysate in the screening; also called antibody A31-VHH
Regarding B4, in the assay with MusCD100-His [5], the binding result is given as “binds”.

B5: A31-VHH1 (antibody, human IgG4 S228P, V domains shown)
VH: B3 VH with N75K, K86R, P87A
notes: also called humanized antibody A31-VHH1
For the molecule B5, in the assay with MusCD100-His [6], the binding result is listed as “binds”. In addition, the binding result in assay [4] is listed as “binds”. In the assay with HuCD100-His, the “MDSC proportion (%) at 2.821 nM antibody” value came out at 16.4%, the “MDSC proportion (%) at 8.463 nM antibody” value was 9.21%, the “MDSC proportion (%) at 25.389 nM antibody” value stood at 7.71% and the “MDSC proportion (%) at 76.166 nM antibody” value is 7.84%. In the assay with HuCD100-His, the “MDSC proportion (%) at 228.498 nM antibody” value turned out to be 13.7% and the “MDSC proportion (%) at 685.495 nM antibody” value worked out at 10%.

B6: A9-VHH2 (antibody, human IgG4 S228P, V domains shown)
VH: QVQLVESGGGLVQAGGSLRLSCAASGFSLDYYAIGWFRQAPGKEREEVSCISSSGGSTDYADSVKGRFTISRAYAKVYLQMNSLRAEDTAVYYCAAGVSGSVCPPLIGAYWGQGTLVTVSS
Regarding B6, in the assay with HuCD100-His, the “MDSC proportion (%) at 2.821 nM antibody” value was found to be 31.2%, the “MDSC proportion (%) at 8.463 nM antibody” value amounted to 17.8%, the “MDSC proportion (%) at 25.389 nM antibody” value is 13.1% and the “MDSC proportion (%) at 76.166 nM antibody” value amounted to 10.5%. In addition, in the assay with HuCD100-His, the “MDSC proportion (%) at 228.498 nM antibody” value stood at 9.09% and the “MDSC proportion (%) at 685.495 nM antibody” value was 10.9%.

B7: A9 (antibody, human IgG4 S228P, V domains shown)
VH: B6 VH with R85K, A86P, L116Q
notes: also called antibody A9; antibody molecule A9
The molecule B7 came in with an EC50 in assay [1] of 0.346 nM. In assay [2], this molecule gave a half-maximal effective concentration (EC50) of 0.191 nM. In the assay with HuCD100-His, the “MDSC proportion (%) at 2.821 nM antibody” value came to 34.2%, the “MDSC proportion (%) at 8.463 nM antibody” value was determined as 23.2%, the “MDSC proportion (%) at 25.389 nM antibody” value turned out to be 10.2% and the “MDSC proportion (%) at 76.166 nM antibody” value was found to be 5.12%. In the assay with HuCD100-His, the “MDSC proportion (%) at 228.498 nM antibody” value came out at 7.08% and the “MDSC proportion (%) at 685.495 nM antibody” value came out at 11.1%.

B8: A9-VHH1 (antibody, human IgG4 S228P, V domains shown)
VH: B6 VH with A14P, R85K, A86P
For B8, in the assay with HuCD100-His, the “MDSC proportion (%) at 2.821 nM antibody” value worked out at 32.6%, the “MDSC proportion (%) at 8.463 nM antibody” value was 21.1%, the “MDSC proportion (%) at 25.389 nM antibody” value is 11% and the “MDSC proportion (%) at 76.166 nM antibody” value was found to be 6.56%. Besides, in the assay with HuCD100-His, the “MDSC proportion (%) at 228.498 nM antibody” value is 9.06% and the “MDSC proportion (%) at 685.495 nM antibody” value was determined as 15.6%.

B9: A9-VHH3 (antibody, human IgG4 S228P, V domains shown)
VH: B6 VH with E44G, R45L
In the case of B9, in the assay with HuCD100-His, the “MDSC proportion (%) at 2.821 nM antibody” value turned out to be 30.9%, the “MDSC proportion (%) at 8.463 nM antibody” value was determined as 21.3%, the “MDSC proportion (%) at 25.389 nM antibody” value amounted to 11.8% and the “MDSC proportion (%) at 76.166 nM antibody” value stood at 7.66%. In addition, in the assay with HuCD100-His, the “MDSC proportion (%) at 228.498 nM antibody” value was 8.85% and the “MDSC proportion (%) at 685.495 nM antibody” value is 15%.
